The labels stand for the following.
B1: recombinant soluble MeV-H Δ8 (other)
chain: RLHRAAIYTAEIHKSLSTNLDVTNSIEHQVKDVLTPLFKIIGDEVGLRTPQRFTDLVKFISDKIKFLNPDREYDFRDLTWCINPPERIKLNYDQYCADVAAEELMNALVNSTLLETRTTNQFLAVSKGNCPGPTTIRGQFSNMSLSLLDLYLSRGYNVSSIVTMTSQGMYGGTYLVGKPDLNSKGSELSQPSMYRVFEVGVIRNPGLGAPVFHMTNYFEQPISKDLSNCMVALGELKLAALCHRGDSITIPCRGSGKGVSFQLVKLGVWKSPTDMHSWVPLSTDDPVIDRLYLSSHRGVITDNQANWAVPTTRTDDKLQKETCFQQACKGKIQALCENLEWAPLKDSRIPSYGVLSVNLSLAAEPKIKIASGFGPLITHGSGMDLYKSNHNNVYWLTIPPMKNLALGVINTLKWIPRLKVSPYLFTVPIEEADEDCRAPTYLPAEVTGDVKLSSNLVILPGQDLQYVLATYDTSGVEHAVVYYVYSPGGSFSYVYPFRLPIKGTPIELQVECFTWAQRLWCRHFCVLADSESGGHLTHSGMVGMEVSCTVNREDEANRR
B2: CD46-Fc (Fc fusion)
chain: CEEPPTFEAMELIGKPKPYYEIGERVDYKCKKGYFYIPPLATHTICDRNHTWLPVSDDACYRETCPYIRDPLNGQAVPANGTYEFGYQMHFICNEGYYLIGEEILYCELKGSVAIWSGKPPICEKVLCTPPPKIKNGKHTFSEVEVFEYLDAVTYSCDPAPGPDPFSLIGESTIYCGDNSVWSRAAPECKVVKCRFPVVENGKQISGFGKKFYYKATVMFECDKGFYLDGSDTIVCDSNSTWDPPVPKCLKVLPPSSTKPPALSHSVSTSSTTKSPASSASGPRPTYKPPVSNY
notes: range 35-328

Where two headings read alike, the source gives them in different places.

Assay [1] has as its target recombinant soluble MeV-H A (vaccine strain) (measles virus).
In assay [2] the target is B2. The assay is described as follows: ELISA, receptor-Fc titrated on plastic-bound MeV-H; one-site fit, apparent Kd (half-saturating concentration).
The target of assay [3] is T1, SLAM-Fc (UniProt Q13291 21-237).
T1 sequence: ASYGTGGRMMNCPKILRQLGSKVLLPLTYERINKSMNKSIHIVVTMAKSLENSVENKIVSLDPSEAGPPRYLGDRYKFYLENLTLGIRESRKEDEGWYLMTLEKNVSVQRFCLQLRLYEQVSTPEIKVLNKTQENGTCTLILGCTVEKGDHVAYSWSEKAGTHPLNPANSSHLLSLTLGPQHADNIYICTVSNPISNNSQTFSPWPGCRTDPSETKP
Description: ELISA, receptor-Fc on plastic-bound MeV-H. Background: ELISA stands for enzyme-linked immunosorbent assay.

For assay [4], the target named is B1. Description: ELISA, receptor-Fc titrated on plastic-bound MeV-H.
Assay [5] has as its target T1, SLAM-Fc. Description: ELISA, receptor-Fc titrated on plastic-bound MeV-H; one-site fit, apparent Kd.
Assay [6] deals with recombinant soluble MeV-H A (vaccine strain) (measles virus). The assay is described as follows: ELISA, receptor-Fc titrated on plastic-bound MeV-H; one-site fit.
The target is the same in assay [7]. Description: ELISA, receptor-Fc titrated on plastic-bound MeV-H; one-site fit, apparent Kd.

As for “CD46-Fc (from UniProt P15529 35-328) (Fc fusion)”, the Kd in assay [1] was 819 µM.

As to “nectin-4-Fc (from UniProt Q96NY8 32-349) (Fc fusion)”, the Bmax in assay [1] was 1.56.

Regarding B1, the Kd in assay [2] came out at 0.00019 µM. The binding result in assay [3] is listed as “no binding”.

On to B2, for which the “fold better binding than MeV-H A and H1” value in assay [4] is ~4000 fold.

B3: recombinant soluble MeV-H H1 (other)
chain: RLHRAAIYTAEIHKSLSTNLDVTNSIEHQVKDVLTPLFKIIGDEVGLRTPQRFTDLVKFISDKIKFLNPDREYDFRDLTWCINPPERIKLNYDQYCADVAAEELMNALVNSTLLETRTTNQFLAVSKGNCSGPTTIRGQFSNMSLSLLDLYLSRGYNVSSIVTMTSQGMYGGTYLVEKPNLNSKGSELSQLSMYRVFEVGVIRNPGLGAPVFHMTNYFEQPISKDLSNCMVALGELKLAALCHGGDSITIPYQGSGKGVSFQLVKLGVWKSPTDMHSWVPLSTDDPVIDRLYLSSHRGVITDNQANWAVPTTRTDDKLRMETCFQQACKGKIQALCENLEWAPLKDSRIPSYGVLSVDLSLAAEPKIKIASGFGPLITHGSGMDLYKSNHNNVYWLTIPPMKNLALGVINTLEWIPRLKVSPNLFTVPIKEAGEDCHAPTYLPAEVDGDVKLSSNLVILPGQDLQYVLATYDTSRVEHAVVYYVYSPSRSFSYFYPFRLPIKGTPIELQVECFTWAQRLWCRHFCVLADSESGGHLTHSGMVGMEVSCTVNREDEANRR
Turning to B3, the Kd in assay [5] was 10.4 µM.

B4: SLAM-Fc (Fc fusion)
chain: ASYGTGGRMMNCPKILRQLGSKVLLPLTYERINKSMNKSIHIVVTMAKSLENSVENKIVSLDPSEAGPPRYLGDRYKFYLENLTLGIRESRKEDEGWYLMTLEKNVSVQRFCLQLRLYEQVSTPEIKVLNKTQENGTCTLILGCTVEKGDHVAYSWSEKAGTHPLNPANSSHLLSLTLGPQHADNIYICTVSNPISNNSQTFSPWPGCRTDPSETKP
As for B4, in assay [6], the Bmax is 2.09. Further, the Kd in assay [7] was 2.68 µM.
